Experimental data as given in patent US20200087367A1 (ACCELERON PHARMA, published 2020).

Assays:
BMP5 = molecular target: T1, BMP5 (human, UniProt P22003 317-454, limits assumed); assay: SPR (Biacore), ligand amine-coupled to chip, Fc fusion injected
T1 sequence (looked up): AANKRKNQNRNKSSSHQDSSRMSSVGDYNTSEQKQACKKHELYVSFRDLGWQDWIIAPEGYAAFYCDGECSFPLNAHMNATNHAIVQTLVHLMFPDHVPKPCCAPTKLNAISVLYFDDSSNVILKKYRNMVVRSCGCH

BMP10 = molecular target: T2, BMP10 (human, UniProt O95393 317-424); assay: as above
T2 construct: also called hBMP-10; hBMP10
T2 sequence: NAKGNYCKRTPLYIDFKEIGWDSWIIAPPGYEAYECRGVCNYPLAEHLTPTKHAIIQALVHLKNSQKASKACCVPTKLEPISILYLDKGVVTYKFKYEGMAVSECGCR

BMP9 = molecular target: T3, BMP9 (human, UniProt Q9UK05 320-429); assay: SPR (Biacore), ligand amine-coupled to chip, Fc fusion injected; the hFc form had only transient affinity for BMP9
T3 construct: also called hBMP-9; hBMP9
T3 sequence (looked up): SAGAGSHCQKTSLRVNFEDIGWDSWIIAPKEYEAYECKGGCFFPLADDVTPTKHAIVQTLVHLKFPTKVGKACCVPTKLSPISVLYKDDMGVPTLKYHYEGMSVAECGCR
Excerpt: Ligands were immobilized on a Biacore™ CMS chip using standard amine-coupling procedure.

binding result (BMP5): no binding | binding result (BMP10): binds | binding result (BMP9): binds
B1: ActRIIB(L79D 25-131)-mFc (Fc fusion)
chain: ETRECIYYNANWELERTNQSGLERCEGEQDKRLHCYASWRNSSGTIELVKKGCWDDDFNCYDRQECVATEENPQVYFCCCEGNFCNERFTHLPEAGGPEVTYEPPPT
notes: not shown: linker and mouse Fc domain
